Results published in US20240336683A1 (published 2024).

T1: full-length human Siglec15 with C-terminal flag and Myc tags on HEK293 cells (human, UniProt Q6ZMC9 20-328)
T1 construct: whole, on cells; also called Siglec15/HEK293; HEK293-Siglec 15; not shown: C-terminal flag and Myc tags from pCMV6-Entry vector
T1 sequence (looked up): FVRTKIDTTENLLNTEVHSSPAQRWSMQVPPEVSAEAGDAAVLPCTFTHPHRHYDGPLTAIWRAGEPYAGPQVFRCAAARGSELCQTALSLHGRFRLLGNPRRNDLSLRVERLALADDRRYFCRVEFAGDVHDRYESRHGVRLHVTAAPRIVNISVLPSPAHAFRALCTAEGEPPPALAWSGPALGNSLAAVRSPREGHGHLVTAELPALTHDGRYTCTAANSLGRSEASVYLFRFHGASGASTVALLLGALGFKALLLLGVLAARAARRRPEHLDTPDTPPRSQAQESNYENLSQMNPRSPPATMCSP

T2: human Siglec 15-HIS tagged recombinant protein (human, UniProt Q6ZMC9 20-263)
T2 construct: Recombinant soluble protein; also called rhSiglec15 His; human Siglec15-HIS tagged protein; not shown: HIS tag
T2 sequence (looked up): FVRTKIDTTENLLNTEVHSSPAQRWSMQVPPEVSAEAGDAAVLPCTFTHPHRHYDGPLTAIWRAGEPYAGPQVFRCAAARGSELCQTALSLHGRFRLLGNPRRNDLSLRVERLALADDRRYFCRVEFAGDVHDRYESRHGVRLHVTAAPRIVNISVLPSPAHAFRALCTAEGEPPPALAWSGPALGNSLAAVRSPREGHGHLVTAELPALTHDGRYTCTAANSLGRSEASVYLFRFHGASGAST

T3: rcynoSiglec15 His (cyno, UniProt A0A2K5UY47 20-262)
T3 construct: not shown: His tag
T3 sequence: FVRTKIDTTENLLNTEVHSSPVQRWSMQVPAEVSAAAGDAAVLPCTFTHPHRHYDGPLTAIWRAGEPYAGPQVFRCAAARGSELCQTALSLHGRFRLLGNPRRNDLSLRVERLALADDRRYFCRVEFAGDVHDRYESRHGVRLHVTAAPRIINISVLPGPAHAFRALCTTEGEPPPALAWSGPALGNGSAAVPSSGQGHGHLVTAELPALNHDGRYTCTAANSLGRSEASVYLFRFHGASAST

T4: rmouseSiglec15 His (mouse, UniProt A7E1W8 20-262)
T4 sequence: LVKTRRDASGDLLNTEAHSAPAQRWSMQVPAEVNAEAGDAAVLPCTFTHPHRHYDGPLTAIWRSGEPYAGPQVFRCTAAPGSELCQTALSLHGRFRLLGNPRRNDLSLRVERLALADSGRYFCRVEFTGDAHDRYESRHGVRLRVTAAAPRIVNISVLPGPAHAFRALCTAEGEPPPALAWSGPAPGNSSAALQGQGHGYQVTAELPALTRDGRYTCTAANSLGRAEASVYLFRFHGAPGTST


Key:
[1] = biological target: T1, full-length human Siglec15 with …; test: FACS on Siglec15/HEK293 cells, IgG, anti-hFc Alexa fluor 647
[2] = biological target: T2, human Siglec 15-HIS tagged recombinant …; test: ELISA; His-tagged Siglec15 coated, IgG titrated, anti-hFc HRP
Protocol: (§1) An ELISA assay was developed to determine the EC50 of anti-Siglec15 IgG antibodies. Briefly, a 384 well plate was immobilized with human Siglec 15-HIS tagged recombinant protein at a final concentration of 2 ug/mL in 1×PBS in total volume of 25 uL per well. The plate was incubated overnight at 4° C. followed by blocking with 80 uL of superblock per well for 1 hour. Titration of purified anti-Siglec15 IgG was performed, starting at 200 nM 2-fold serial dilution, then 25 uL was added to the human Siglec15 immobilized wells and incubated for 1 hour with shaking. The Siglec15 binding was detected by adding 25 uL of anti-hFc HRP diluted at 1:5000 in 1×PBST. In between each step, the plate was washed 3 times with 1×PBST in a plate washer. The plate was then developed with 20 ul of TMB substrate for 5 mins and stopped by adding 20 ul of 2N sulfuric acid. The plate was read at OD450 nm Biotek plate reader and then plotted in Prism 8.1 software. Similar binding experiments were done for mouse Siglec15 and cyno Siglec15 to check the cross activity of the IgG antibodies to those two species.

rcynoSiglec15 His = biological target: T3, rcynoSiglec15 His; test: as above
Protocol: as §1

rmouseSiglec15 His = biological target: T4, rmouseSiglec15 His; test: as above
Protocol: as §1

| EC50 [1] | EC50 [2] | EC50 (rcynoSiglec15 His) | EC50 (rmouseSiglec15 His) | Binder |
| --- | --- | --- | --- | --- |
| 0.022 nM | 0.0228 nM | 0.0258 nM | 0.0105 nM | 2020EP032-H11 IgG (antibody, V domains shown, IgG form expressed in ExpiHEK293-F cells; detected with anti-hFc; also called 2020EP32-H11; H11 mAb) VH: EVQLVESGGGLVKPGGSLRLSCAASGFTFSSYSMNWVRQAPGKGLEWVSSISSSSSYIYYADSVKGRFTISRDNAKNSLYLQMNSLRAEDTAVYYCARDYRGYSGQNYYGMDVWGQGTTVTVSS VL: QSALTQPPSVSAAPRQKVTISCSGSSSNIGNNDVSWYQQLPGTVPKLLIYDNNKRPSGIPDRFSGSKSGTSASLGITGLQTGDEADYYCGVWDSSLSGYVFGTGTKVTVL |
| 1.92 nM | 0.527 nM | 1.21 nM | 0.248 nM | 2020EP032-B03 IgG (antibody, V domains shown, IgG form expressed in ExpiHEK293-F cells; detected with anti-hFc; also called 2020EP32-B03) VH: QVQLQQWGAGLLKPSETLSLTCAVYGGSFSGYYWSWIRQPPGKGLEWIGEINHSGSTNYNPSLKSRVTISVDTSKNQFSLKLSSVTAADTAVYYCARGPLRKYYDFWSGSRNYYYYGMDVWGQGTTVTVSS VL: QPVLTQDPAVSVALGQTVRITCQGDSLRSNYASWYQLKPGQAPVLVIYDKNNRPSGIPDRFSGSNSGNTASLTIAGAQAEDEADYYCTSRDSSGTVFGGGTKLTVL |
